The text below walks through data of US20040204388A1 (UCB, published 2004).

The target of this assay is T1, SV2A (rat); native protein of rat brain membranes, solubilized in n-dodecyl-β-D-maltoside; also endogenous in … (rat, UniProt Q02563 1-742).
T1 construct: Native protein from rat tissue or cells, not a recombinant construct; Native glycosylated integral membrane protein; also called soluble SV2A; immunopurified SV2A
Briefly: Western blot of fractions immunopurified with anti-SV2A antibodies from solubilized rat brain membranes. As to the method: The rat brain membranes were diluted in a solubilization buffer (Tris-HCl 20 mM pH 7.4, 0.25 M sucrose, protease inhibitors Complete Roche) containing n-dodecyl-β-D-maltoside 15 mM and incubated for two hours at 4° C. Subsequently, the solution was centrifuged at 4° C. for one hour at 100,000 g.
On the technique in general: In western blotting, separated proteins are transferred to a membrane and probed.

T1 sequence (Q02563 whole entry C340F): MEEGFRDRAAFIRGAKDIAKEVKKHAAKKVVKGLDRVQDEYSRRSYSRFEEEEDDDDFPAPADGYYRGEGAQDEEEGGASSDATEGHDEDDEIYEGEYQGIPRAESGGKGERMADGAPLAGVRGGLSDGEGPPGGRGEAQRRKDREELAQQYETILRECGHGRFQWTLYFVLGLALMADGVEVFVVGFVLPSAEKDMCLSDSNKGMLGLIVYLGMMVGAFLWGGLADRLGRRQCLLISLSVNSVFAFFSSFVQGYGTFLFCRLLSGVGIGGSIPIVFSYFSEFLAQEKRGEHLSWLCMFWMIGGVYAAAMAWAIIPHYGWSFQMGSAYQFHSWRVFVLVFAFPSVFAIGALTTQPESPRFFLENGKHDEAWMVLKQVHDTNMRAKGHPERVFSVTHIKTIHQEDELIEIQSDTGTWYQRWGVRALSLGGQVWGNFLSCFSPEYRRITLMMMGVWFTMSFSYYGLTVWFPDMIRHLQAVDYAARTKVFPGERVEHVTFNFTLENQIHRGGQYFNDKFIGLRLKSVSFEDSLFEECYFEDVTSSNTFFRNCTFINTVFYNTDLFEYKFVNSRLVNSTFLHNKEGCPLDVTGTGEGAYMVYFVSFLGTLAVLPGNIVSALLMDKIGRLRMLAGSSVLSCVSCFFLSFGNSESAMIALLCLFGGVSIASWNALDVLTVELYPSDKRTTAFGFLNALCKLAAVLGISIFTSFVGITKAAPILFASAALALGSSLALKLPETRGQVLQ

B1: SV2B (rat; native isoform in rat brain membranes) (other)
chain: MDDYRYRDNYEGYAPNDGYYRGNEQNPEEDAQSDVTEGHDEEDEIYEGEYQGIPHPDDVKSKQTKMAPSRADGLRGQADLMAERMEDEEQLAHQYETIIDECGHGRFQWTLFFVLVLALMADGVEVFVVSFALPSAEKDMCLSSSKKGMLGLIVYLGMMAGAFILGGLADKLGRKKVLSMSLAINASFASLSSFVQGYGAFLFCRLISGIGIGGSLPIVFAYFSEFLSREKRGEHLSWLGIFWMTGGIYASAMAWSIIPHYGWGFSMGTNYHFHSWRVFVIVCALPATVSMVALKFMPESPRFLLEMGKHDEAWMILKQVHDTNMRAKGTPEKVFTVSHIKTPKQMDEFIEIQSSTGTWYQRWLVRFMTIFKQVWDNALYCVMGPYRMNTLILAVVWFTMALSYYGLTVWFPDMIRYFQDEEYKSKMKVFFGEHVHGATINFTMENQIHQHGKLVNDKFIKMYFKHVLFEDTFFDKCYFEDVTSTDTYFKNCTIESTTFYNTDLYKHKFIDCRFINSTFLEQKEGCHMDFEEDNDFLIYLVSFLGSLSVLPGNIISALLMDRIGRLKMIGGSMLISAVCCFFLFFGNSESAMIGWQCLFCGTSIAAWNALDVITVELYPTNQRATAFGILNGLCKLGAILGNTIFASFVGITKVVPILLAAASLVGGGLVALRLPETREQVLM
notes: Native protein of rat brain; also called isoform SV2B
As to B1, the binding result was “no binding”.
